Laboratory results: the supplement of paper PMC9170038

Each sequence was assayed on K4 kissing-loop RNA reporter (assay: apparent KD of K4 kissing-loop reporter; higher = weaker reporter binding). Conditions: Eterna round: R107; input ligand: FMN 200 uM.
Procedure: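 RNA-MaP round R107: designed RNA switches with theophylline, tryptophan, arginine or FMN aptamers are transcribed on-chip within common flanks. They are titrated with a labelled K4 kissing-loop RNA reporter in RNA-MaP buffer (100 mM Tris pH 7.5, 80 mM KCl, 4 mM MgCl2), without ligand or with the indicated ligand. Median apparent KD per design.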
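Note: bound reporter read as fluorescence of individual clusters on recovered sequencing chips by microscopy, with normalized cluster intensities fitted with a binding model.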

| Sequence | apparent KD of K4 kissing-loop reporter |
| --- | --- |
| CAUAGACAAGUGAUGUUUGUCAUAACCGAAGGAGCGUCGUUGAAGACAGGUAGGUCGCGGAUUAAUUUAGAUUAUAUUCUUUUUA [JR_SSArginiA_Sub020] | 595 nM |
| GCAUCCAUGGCAGGAUAUAGGUUCGUGGAGUGAUGUUCCAUAGCCCGAGUGAUGUUCGUUAUCCACCUAGAAGGGCCAUGGAUGC [whbob_Ex_FMNB__2th212] | 270 nM |
| ACCCAAGCCCAUCGCGCAGUGAUGUUGUCGCGAGGACCGGUACGGCCGCCACUCGAUAGCAGUGGCAACGUCAUCAUAAUCGAUU [theeternabot_exclusion_KL_Trp_A_50] | 340 nM |
| UCGAAAUGCGUCUCCUAGUUACUCCGGGAAGGAGCGUGGAUAACCGCAGGUAGGUCGCCCGGAAGCCGGACCAGUGAUGUUGGUC [Exclusion Arginine A Gf 29] | 216 nM |
| GGUAGCAUGGCGGCCGCCACUCGCAUCACAGGCCAUUAACCGCCCUCGUAAAGUGAUGUUUUACAGAGGACCGGGCCAUGCUACC | 331 nM |
| UAAGAAUAAGUAGCAGUGAUGUUGCUACUACGAGGACCGGUACGGCCGCCACUCGAGUCCUCGAAACAUCACUGAACGAGGAAUA [(H,1)-(H,2)-(Trp1)-(Trp2)-(T)'-(H)'-(T)''] | 231 nM |
| UGAUACCAGGCGGCCGCCACUCCUACAGGUCAAAGACCUGUAGAACUGGUUUUUUAGUGAUGUUGGAGGACCGGGCCUGGUAUCU [FiskerMod 30 - Jieux - Exclusion - Tryptophan B] | 698 nM |
| UGGAGUUGACGAAAAGUCAACUCCUGAGAUACCAGUGACGAAAGUCACCCUUGGCAGCUCACUGCCAGUGAUGUUGGAACUAAAG [#02 K4 Theophylline A Same State] | 308 nM |
| AUUAUAUUGUGAAGGAGCGCGAAUAGCAGUGAUGUUGCUAUCAAACGAUAUAUUAUUUACACGCAGGUAGGUCGCACAAUAUAUA [JR_Nu_SSArginiB_Sub022] | 171 nM |
| UGCAUGCUUGGAGUGAUGUUCCAAGAUGAUACCAGUGCUUUUUUGCACCCUUGGCAGCGUCUGAUUGCAUGCACGUCGAAAGACG | 531 nM |
| GGUCCGCGGUCGGCCGCCACUGAACAAGACCAGUGAUGUUGGAUCUUCCAGUGCGUUGGCUUUAACAGGACCGGGACCGUGGAGC [Titia] | 139 nM |
| UGAUACCAGGCGGCCGCCACUCCCGCAGGUCAAAGACCUGCGAAGCUGGUUCUCCAGUGAUGUUGGAGGACCGGGCCUGGUAUCU [FiskerMod 26 - Jieux - Exclusion - Tryptophan B] | 191 nM |
| AACCCAUGACUGGAUACCAGACUAUACAUGCUGAGUGAUGUUUAGCGGAGUCAUCUCUCGGUCCCUUGGCAGCCAACGUCACGCG [theeternabot_sameState_KL_Theo_B_33] | 614 nM |
| UUGUUUUACUGAAGGAGCGGCAAUUGAUACGUAGAUAUAGUGAUGUUAUAUAAGAUAGAGAGCCAGGUAGGUCGCAGAUUUUUUU [ExArgB.V] | 164 nM |
| AAUAAGUGUCAGCGAGUGAUGUUCGACGAUACCAGCCUCGAUAGAGGCCCUUGGCAGCGUAACGCAUGCCAAACUGGCACAAUAA [#SwitchBubble 7 #K4Early] | 500 nM |
| GGUGUGCCAGUGAUGUUGGCAUAAACUGAAGGAGCGCGUGAAAACGCAGGUAGGUCGCAGAACCUUGCCAACUAUUUUAUUCACC [Ex Arginine A K4 25] | 181 nM |
| AUGGUGGAGGAGUGAUGUUCUUGGAGUAGGUAGGAUAUGAGUGAUGUUAGAAGGAUCGGAGUGAUGUUCCAGGUGGUUGUGUUGU [KL-SSFMN-A2] | 570 nM |
| AGUGAUGUUGUGUUAUGUUAGGGAAGUGAUCGAGGACCGGUACGGCCGCCACUCGAGUGAUGAGUGAGUGAUGUUUGUUUAGGGA [yytmullin] | 1030 nM |
| AAUUAAUGUAUAGAUUAUAUACAUUAAUCAGAGGAUAUGCAUUGUUGCAGAAGGCUGAAUGCAGUGAUGUUGCAAUGGAAAUUUA [JR_SSFMNA_Sub004] | 53.8 nM |
| UGGUUAAGCAGUGAUGUUGCAAGUAAUGAUACCAGUUAAGAAGAGAACCCUUGGCAGCAUAAAGUGCGCUCUGAUGAGUGUGCUU [whbob_SS_Theo_A_w54] | 197 nM |
| GAUGAAGAGUCGUUAGUUAGGGCUUUCGAUACCAGCGCCCGUCCACGCCCUUGGCAGCGAUUGAAAGAGUGAUGUUCUGUCAGGA [theeternabot_exclusion_KL_Theo_A_31] | 578 nM |
| UUUAUAUUGUCGGCCGCCACUGGAUUAAUAUUUGUAUAAUCUAGUUCAAAGUGAUGUUUUGAGUCCAGGACCGGGACAUUUGAUA [JR_Nu_ExcTryptoB_Sub029] | 622 nM |
| AGGACGUGAGAAGAUACCAGAGAAUAAUGCAGUGAUGUUGCUAAAUAUAAUUUAAUAUAACUCCCUUGGCAGCUUAAGUUAGUCU [Theophylline b same state] | 75.2 nM |
| UAGGGUUGAAAAGGAUAUUUACCCUAUGUCAACGAGUGAUGUUCGUGGACAUUAGGCACAACUCGUAAAGAAGGUUUCCAGACUC [theeternabot_sameState_KL_FMN_B_39] | 93 nM |
| GCGCGUGUUAAAGGAUAUAGCAGGUGAUACAAGAAAGUGAGUGAUGUUUAUGUAGAUGAUGAUAUGUUAGAAGGUUAACACGCGC [abcdefghijklmnopqr] | 784 nM |
| AAUAUAGUGAUGUUAUAUAAGAAGGAGUUACGAGGACCGGUACGGCCGCCACUCGAAACGAGUGAGGAUUUGGGAGAUUGGGUCC [SSTryptA.K] | 300 nM |
